# Results as given in patent WO2021244601A1 (dated 2021).
# B1: IgG4 wild-type control antibody (antibody)
# heavy: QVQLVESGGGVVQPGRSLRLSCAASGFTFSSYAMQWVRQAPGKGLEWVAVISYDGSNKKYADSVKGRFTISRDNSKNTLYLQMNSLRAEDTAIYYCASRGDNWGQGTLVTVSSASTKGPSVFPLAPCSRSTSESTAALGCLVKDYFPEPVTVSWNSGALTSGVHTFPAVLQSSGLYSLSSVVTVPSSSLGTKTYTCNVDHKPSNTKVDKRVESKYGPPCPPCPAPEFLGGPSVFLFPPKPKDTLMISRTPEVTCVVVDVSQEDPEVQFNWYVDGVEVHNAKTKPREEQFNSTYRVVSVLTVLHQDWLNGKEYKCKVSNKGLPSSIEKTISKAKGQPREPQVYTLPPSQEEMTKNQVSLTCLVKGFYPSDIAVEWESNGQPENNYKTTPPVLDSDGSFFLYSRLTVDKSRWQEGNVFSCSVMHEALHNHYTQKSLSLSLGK
# light: DIVMTQSPSSLSASVGDRVTITCRASQGIRNDLGWYQQKPGKAPKLLIYAASSLQSGVPSRFSGSGSGTDFTLTISSLQPEDFATYYCLQDYNYPRTFGQGTKVEIKRTVAAPSVFIFPPSDEQLKSGTASVVCLLNNFYPREAKVQWKVDNALQSGNSQESVTEQDSKDSTYSLSSTLTLSKADYEKHKVYACEVTHQGLSSPVTKSFNRGEC
# B2: CA530 (antibody)
# heavy: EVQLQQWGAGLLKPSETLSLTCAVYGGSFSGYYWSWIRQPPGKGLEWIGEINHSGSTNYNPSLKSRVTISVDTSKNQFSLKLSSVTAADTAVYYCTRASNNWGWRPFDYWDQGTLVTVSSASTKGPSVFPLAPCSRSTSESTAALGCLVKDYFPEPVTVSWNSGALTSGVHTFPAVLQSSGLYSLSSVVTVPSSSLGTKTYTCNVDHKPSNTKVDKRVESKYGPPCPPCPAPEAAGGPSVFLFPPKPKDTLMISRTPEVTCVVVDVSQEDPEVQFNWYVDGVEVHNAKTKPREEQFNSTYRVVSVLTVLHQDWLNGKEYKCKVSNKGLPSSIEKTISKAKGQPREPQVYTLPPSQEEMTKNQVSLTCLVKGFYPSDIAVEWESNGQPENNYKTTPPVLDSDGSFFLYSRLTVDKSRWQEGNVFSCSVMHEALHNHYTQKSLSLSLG
# light: DIVMTQTPLSLPVTLGQPASISCRSSQSLVHSDGNTYLNWFQQRPGQSPRRLIYKVSNRDSGVPDRFSGSGSGTDFTLKISRVEAEDVGVYYCMQGTHWPRTFGQGTKVEIKRTVAAPSVFIFPPSDEQLKSGTASVVCLLNNFYPREAKVQWKVDNALQSGNSQESVTEQDSKDSTYSLSSTLTLSKADYEKHKVYACEVTHQGLSSPVTKSFNRGEC
# notes: copies: 2 + 2
# B3: CA304 (antibody, V domains shown)
# VH: EVQLQQWGAGLLKPSETLSLTCAVYGGSFSGYYWSWIRQPPGKGLEWIGEVNHSGSTNYNPSLKSRVTISVDTSKNQLSLKLNSVTAADTAVYYCARGNTMVRGVIIPFEYWDKGTLVTVSS
# VL: DIVMTQTPLSLPVTLGQPASISCRSSQSLVHSDGNTYLNWFQQRPGQSPRRLIYKVSNRDSGVPDRFSGSGAGTDFTLKISRVEAEDVGVYYCTQATQFPFTFGPGTKVDIKR
# B4: CA555 (antibody, V domains shown)
# VH: B3 VH
# VL: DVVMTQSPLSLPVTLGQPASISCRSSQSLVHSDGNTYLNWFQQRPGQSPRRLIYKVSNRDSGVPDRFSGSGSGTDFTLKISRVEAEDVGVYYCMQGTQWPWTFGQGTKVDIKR
# Tests used:
# [1] = molecular target: T1, human CD64 (ACROBiosystems, catalog number FCA-H52H2) (human, UniProt P12314 16-288)
# [2] = molecular target: S protein of Wuhan-Hu-1 on pseudovirus (SARS-CoV-2 Wuhan-Hu-1 strain, UniProt P0DTC2 14-1273); assay: cell-based or functional assay
# [3] = molecular target: T1, human CD64 (ACROBiosystems, catalog …); assay: BLI, OctetRED 96, antibody on FAB2G sensor
# [4] = molecular target: Spike S1+S2 protein of Wuhan-Hu-1 (Yiqiao Shenzhou / SB, 40589-V08B1) (SARS-CoV-2 Wuhan-Hu-1 strain, UniProt P0DTC2 16-1213)
# [5] = molecular target: S protein of SARS-CoV-2 true virus, strain BetaCoV/Beijing/IMEBJ01/2020 (SARS-CoV-2 BetaCoV/Beijing/IMEBJ01/2020); assay: cell-based or functional assay
# T1 sequence (P12314 16-288 limits assumed): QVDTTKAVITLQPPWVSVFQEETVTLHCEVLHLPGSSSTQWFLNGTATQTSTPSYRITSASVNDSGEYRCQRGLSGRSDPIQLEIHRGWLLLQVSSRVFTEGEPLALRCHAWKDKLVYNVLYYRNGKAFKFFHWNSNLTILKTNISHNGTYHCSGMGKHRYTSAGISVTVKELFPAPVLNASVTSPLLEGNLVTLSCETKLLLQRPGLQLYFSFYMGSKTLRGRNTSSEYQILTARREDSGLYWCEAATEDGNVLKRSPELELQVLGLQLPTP
Binder,Kd [1],"IC50(nM), pseudovirus neutralisation on 293T-ACE2 cells (Luciferase RLU) [2]",binding result [3],IC50 [4],"IC50, pseudovirus neutralisation (method as 3.15) [2]","IC50, neutralisation of true virus on Vero cells (plaques) [5]"
B1,3410 pM,–,–,–,–,–
B2,–,0.11 nM,no binding,–,–,–
B3,–,0.2 nM,–,176 pM,821 pM,0.08 µg/mL
B4,–,0.98 nM,–,187 pM,328 pM,–
